Source: PMC8387365 (Nature chemical biology, 2021)

Molecular target: T1, Kif4A-GFP (UniProt O95239 1-1232)
T1 sequence: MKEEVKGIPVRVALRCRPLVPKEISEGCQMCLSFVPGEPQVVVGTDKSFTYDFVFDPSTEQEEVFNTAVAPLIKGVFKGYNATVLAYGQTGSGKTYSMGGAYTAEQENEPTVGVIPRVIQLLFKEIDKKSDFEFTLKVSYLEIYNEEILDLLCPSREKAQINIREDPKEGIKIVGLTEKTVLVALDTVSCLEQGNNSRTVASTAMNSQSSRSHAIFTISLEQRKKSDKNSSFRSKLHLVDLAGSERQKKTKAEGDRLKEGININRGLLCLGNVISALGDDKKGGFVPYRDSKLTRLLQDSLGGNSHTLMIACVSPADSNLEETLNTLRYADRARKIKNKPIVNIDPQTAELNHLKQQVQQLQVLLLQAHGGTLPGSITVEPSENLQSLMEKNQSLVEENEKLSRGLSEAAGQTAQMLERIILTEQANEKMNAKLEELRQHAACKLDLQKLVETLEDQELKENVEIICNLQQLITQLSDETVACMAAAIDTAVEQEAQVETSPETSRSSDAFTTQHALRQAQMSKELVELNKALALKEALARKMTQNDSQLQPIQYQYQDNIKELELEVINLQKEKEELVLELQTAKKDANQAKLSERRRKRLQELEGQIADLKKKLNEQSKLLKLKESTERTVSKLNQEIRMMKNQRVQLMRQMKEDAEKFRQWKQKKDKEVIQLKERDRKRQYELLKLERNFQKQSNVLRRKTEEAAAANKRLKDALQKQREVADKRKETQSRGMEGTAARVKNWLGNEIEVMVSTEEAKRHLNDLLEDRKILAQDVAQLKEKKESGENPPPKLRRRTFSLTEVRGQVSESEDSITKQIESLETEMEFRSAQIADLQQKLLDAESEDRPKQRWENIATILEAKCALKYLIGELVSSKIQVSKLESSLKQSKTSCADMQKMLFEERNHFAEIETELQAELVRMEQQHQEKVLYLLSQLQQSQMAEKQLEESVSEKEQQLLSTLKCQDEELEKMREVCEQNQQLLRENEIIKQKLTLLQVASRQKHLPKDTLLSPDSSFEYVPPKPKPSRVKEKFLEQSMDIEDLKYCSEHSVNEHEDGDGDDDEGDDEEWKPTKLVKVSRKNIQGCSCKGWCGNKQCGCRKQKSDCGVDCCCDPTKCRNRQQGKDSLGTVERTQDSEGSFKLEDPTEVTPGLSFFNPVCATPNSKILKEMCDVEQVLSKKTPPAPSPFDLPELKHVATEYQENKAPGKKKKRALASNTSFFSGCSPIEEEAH
Test: BLI

Kd: 12.5 ± 2.09 nM
B1: full-length PRC1 (Protein Regulator of Cytokinesis-1) (natural protein)
chain: MRRSEVLAEESIVCLQKALNHLREIWELIGIPEDQRLQRTEVVKKHIKELLDMMIAEEESLKERLIKSISVCQKELNTLCSELHVEPFQEEGETTILQLEKDLRTQVELMRKQKKERKQELKLLQEQDQELCEILCMPHYDIDSASVPSLEELNQFRQHVTTLRETKASRREEFVSIKRQIILCMEALDHTPDTSFERDVVCEDEDAFCLSLENIATLQKLLRQLEMQKSQNEAVCEGLRTQIRELWDRLQIPEEEREAVATIMSGSKAKVRKALQLEVDRLEELKMQNMKKVIEAIRVELVQYWDQCFYSQEQRQAFAPFCAEDYTESLLQLHDAEIVRLKNYYEVHKELFEGVQKWEETWRLFLEFERKASDPNRFTNRGGNLLKEEKQRAKLQKMLPKLEEELKARIELWEQEHSKAFMVNGQKFMEYVAEQWEMHRLEKERAKQERQLKNKKQTETEMLYGSAPRTPSKRRGLAPNTPGKARKLNTTTMSNATANSSIRPIFGGTVYHSPVSRLPPSGSKPVAASTCSGKKTPRTGRHGANKENLELNGSILSGGYPGSAPLQRNFSINSVASTYSEFAKDPSLSDSSTVGLQRELSKASKSDATSGILNSTNIQS
